This note sets out measurements from article PMC6735613.

The target of this experiment is recombinant human MMP-9 catalytic domain (residues 112-445) (human) (UniProt P14780).
Sequence of UniProt P14780 (P14780 112-445): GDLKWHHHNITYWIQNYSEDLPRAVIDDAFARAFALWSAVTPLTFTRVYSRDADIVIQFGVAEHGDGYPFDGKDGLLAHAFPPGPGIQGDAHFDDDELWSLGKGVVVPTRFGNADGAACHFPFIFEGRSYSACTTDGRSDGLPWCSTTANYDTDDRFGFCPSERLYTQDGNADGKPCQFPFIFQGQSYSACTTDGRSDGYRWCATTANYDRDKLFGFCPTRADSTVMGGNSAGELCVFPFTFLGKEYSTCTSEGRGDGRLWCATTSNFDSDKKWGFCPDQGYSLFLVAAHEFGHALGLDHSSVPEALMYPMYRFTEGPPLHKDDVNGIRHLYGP

B1: VCAN p.1335-1347 FRET substrate (5-FAM-…-QXL) (peptide)
peptide: GRMSDLSMIGHPI
modifications: 5-FAM on the N-terminus, QXL quencher on the C-terminus (5-FAM-GRMSDLSMIGHPI-QXL)
Regarding B1, the Kcat/Km of hydrolysis of the FRET-tagged peptide by the MMP-9 catalytic domain stood at 8650 M⁻¹ s⁻¹.
